Results reported in the supplement of paper PMC12455559.
± gives the standard deviation of the averaged measurements.

Columns and labels:
[1] = melting temperature (DSF); higher = more thermostable
Method in brief: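 Candidate enzymes were expressed in E. coli C41(DE3), purified on nickel beads and released by SUMO protease cleavage. For differential scanning fluorimetry, 45 μL enzyme (0 to 0.3 mg/mL) was mixed with 5 μL 5X Sypro Orange in sealed PCR plates on a Bio-Rad CFX96 instrument. Fluorescence was read from 25 °C in steps of 0.3 °C per cycle (ramp 0.3 °C/s) for 250 cycles. The read-out is melting temperature.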

[2] = purified protein yield per well (BCA); higher = higher soluble expression
Method in brief: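 On an OT-2 robot, lysed cells were processed by binding protein to Ni-charged magnetic beads and releasing it with SUMO protease. Expression took place in E. coli C41(DE3), in 2 mL autoinduction cultures with 100 µg/mL kanamycin, for 2 h at 37 °C followed by 40 h at 18 °C. The Pierce Rapid Gold BCA kit was used to quantify purified protein yield in each well, with values under 25 ug (0.1 mg/mL) below the detection threshold.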

[3] = PET hydrolysis, aromatic products released after 48 h (umol product/mg enzyme); higher = more PET depolymerization activity
Method in brief: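 PET hydrolysis activity was taken as the aromatic product in the supernatant and expressed per mg enzyme. This product was measured by absorbance at 260 and 280 nm against buffer blanks. Each reaction held 5 μg (50 μL) of tagless, SUMO-cleaved candidate enzyme purified on nickel beads, plus 3.5 mg amorphous PET film or crystalline PET powder in 450 μL buffer: 50 mM NaCitrate (pH 4.5, 5.5), 50 mM NaPhosphate (pH 6.5, 7.5) or glycine (pH 8.5). Plates were sealed and left 48 h at 40 or 60 °C without shaking.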

[4] = substrate: aFilm, 40 °C, pH 4.5
[5] = substrate: aFilm, 40 °C, pH 5.5
[6] = substrate: aFilm, 40 °C, pH 6.5
[7] = substrate: aFilm, 40 °C, pH 7.5
[8] = substrate: aFilm, 60 °C, pH 4.5
[9] = substrate: aFilm, 60 °C, pH 5.5
[10] = substrate: aFilm, 60 °C, pH 6.5
[11] = substrate: aFilm, 60 °C, pH 7.5
[12] = substrate: cryPow, 40 °C, pH 4.5
[13] = substrate: cryPow, 40 °C, pH 5.5
[14] = substrate: cryPow, 40 °C, pH 6.5
[15] = substrate: cryPow, 40 °C, pH 7.5
[16] = substrate: cryPow, 60 °C, pH 4.5
[17] = substrate: cryPow, 60 °C, pH 5.5
[18] = substrate: cryPow, 60 °C, pH 6.5
[19] = substrate: cryPow, 60 °C, pH 7.5
[20] = substrate: cryPow, 40 °C, pH 8.5

## APPARVAALATTAYQRGPAPTLSGVRAALGPFSYSTASVSAAATGYTFGGGTVYYPDDTSQGTFGGIAVTPGYTGTEGSIAWLGPRLASQGFVVITIATKSLYDQPTARGQQLLAALDYLKTYSPAAVRQRLDPQRLAVSGHSMGGGGALYAVWSRPSLKAAVPLAPYHTIKNWSAITVPTLIEAGTADTVTPVGTFAEPIYQSLTGASERAYAEVAGANHLTFTAENPLIGGLEVAWMKRFVDDDARYDQFLCPAPTDPGLTEYRDSCPTS [TEP101]
[1]
  melting temperature: 56.5 C
[2]
  purified protein yield per well: 377 µg
[3]; [4]
  PET hydrolysis: < 3
[3]; [5]
  PET hydrolysis: < 3
[3]; [6]
  PET hydrolysis: < 3
[3]; [7]
  PET hydrolysis: < 3
[3]; [8]
  PET hydrolysis: < 3
[3]; [9]
  PET hydrolysis: < 3
[3]; [10]
  PET hydrolysis: < 3
[3]; [11]
  PET hydrolysis: < 3
[3]; [12]
  PET hydrolysis: < 3
[3]; [13]
  PET hydrolysis: 9 ± 1.4
[3]; [14]
  PET hydrolysis: 18.5 ± 0.71
[3]; [15]
  PET hydrolysis: 24 ± 2.8
[3]; [16]
  PET hydrolysis: < 3
[3]; [17]
  PET hydrolysis: 3
[3]; [18]
  PET hydrolysis: 7.5 ± 0.71
[3]; [19]
  PET hydrolysis: 7.5 ± 0.71

## AQENPYERGPAPTAQNITEDGPFAYATATVPAQSGFAGGAIYYPTDTSQGTFGAVAAVPGFLTPVDDVAWMGPRLASHGFVVFTIEPNSRFEFPSGRAAALKAGLTYLTQSSAVRDRVDPTRLAVAGHSMGGGAALEAALKDPNLKAAVALQPWHTGVNFSTVNVPSMIVGAENDPIASPASHAEPFYEQIPAASEKAYLNLAGVGHEVGGVVTNDTQSSMMLTWLKRYVDNDTRYEPFMCPGPSGSSVLEYRGTCPG [TEP170]
[1]
  melting temperature: 49.3 C
[2]
  purified protein yield per well: 137 µg
[3]; [12]
  PET hydrolysis: < 3
[3]; [13]
  PET hydrolysis: < 3
[3]; [14]
  PET hydrolysis: < 3
[3]; [15]
  PET hydrolysis: < 3
[3]; [16]
  PET hydrolysis: < 3
[3]; [17]
  PET hydrolysis: < 3
[3]; [18]
  PET hydrolysis: < 3
[3]; [19]
  PET hydrolysis: < 3

## AQTSQVVTANPHQRGPDPTPETVRAPQGTFAFSTYSVPASVTGFGQGTIYYPDDTTQGTFAGVAISPGYTGPEASVAWLGPRLASRGFVVITITTNSRYDQPTSRGKQLLAALDYLTKQSPTEVRQRLDATRLGVMGHSMGGGGALYAAYKRPSLKAAVPLAPWNLIKNWSGIRVPTLVVAGTADKTASAGAHSLPFYSSMTGARERAFADVTGADHLTFVREDPVIGALAVSWLKRFLDDDTRYAPFITEPVGLSRFLCSCPYAG [DP007]
[1]
  melting temperature: 51.7 C
[2]
  purified protein yield per well: 46 µg
[3]; [13]
  PET hydrolysis: < 3
[3]; [14]
  PET hydrolysis: 8
[3]; [15]
  PET hydrolysis: 16
[3]; [20]
  PET hydrolysis: 16

## ASPYERGPDPTDSILEASRGPFATSQLSVSSLSVSGFGGGTVYYPTDTSQGTFGAIAISPGYTARWSSLAWLGPRIASHGFVVIGIETNTIYDQPASRGRQLLAALDYLTSSSPSTVRSRIDASRLAVAGHSMGGGGTLEAANDRPSLQAAVPLAPWNLTKIWSGVRVPTMIIGGEADTVAPVASHSEPFYQSIPSSVEKAYLELNNASHFFPQTTNTTMAKSMVAWLKRFVDDDTRYDQFLCPAPRGLAIQEYRDTCPIS [TEP144]
[1]
  melting temperature: 46.6 C
[2]
  purified protein yield per well: 32.6 µg
[3]; [12]
  PET hydrolysis: < 3
[3]; [13]
  PET hydrolysis: < 3
[3]; [14]
  PET hydrolysis: < 3
[3]; [15]
  PET hydrolysis: < 3

## ASPYERGPNPTAASVSATTGPFAIASVSVARGNGFGGGVIYYPTATNQGTFGGIAISPGLNGTWAGIAWLGPRLASQGFVVFGIETNNLNDSPTSRGTQLLAALDYLTQRSTVRTRVDAGRLAVMGHSMGGGGALDAALRRPSLQAAIGNAPHLPSGTLSNDRVPTMIYAMQNDTLVPPSRLTTLYNSIPATTERGYILVTGAGHNYIGQPSTTLARTMIPWFKIFIDDDTRYSQFLCPMSNQSGISQYRNSCPLS [ESM160]
[1]
  melting temperature: 55.6 C
[2]
  purified protein yield per well: 400 µg
[3]; [4]
  PET hydrolysis: < 3
[3]; [5]
  PET hydrolysis: < 3
[3]; [6]
  PET hydrolysis: < 3
[3]; [7]
  PET hydrolysis: < 3
[3]; [8]
  PET hydrolysis: < 3
[3]; [9]
  PET hydrolysis: < 3
[3]; [10]
  PET hydrolysis: < 3
[3]; [11]
  PET hydrolysis: < 3
[3]; [12]
  PET hydrolysis: < 3
[3]; [13]
  PET hydrolysis: 13.5 ± 2.1
[3]; [14]
  PET hydrolysis: 43.5 ± 3.5
[3]; [15]
  PET hydrolysis: 66.5 ± 0.71
[3]; [16]
  PET hydrolysis: < 3
[3]; [17]
  PET hydrolysis: < 3
[3]; [18]
  PET hydrolysis: 7.5 ± 0.71
[3]; [19]
  PET hydrolysis: 14 ± 1.4

## ASPYERGPNPTTAILEASSGPYSVSSVSVSSLVTGFGGGRIYYPTTTADGTFGGIAISPGFTARWSSLEWLGPRIASHGFVVIGIETNSIYDQPTSRGQQLLAALDYLVNSSSARTRVDRNRLAVAGHSMGGGGTLYAANARPSLQAAVPIAPWNTDKTWGGVQVPTMIIGGESDSVAPVATHAIPFYTSIPASSEKAYLELNNASHFFPQTVNTTMAKSMVSWLKRYVDDDTRYDPWLCPAPSGLSISDYRDTCPA [DP084]
[1]
  melting temperature: 48.7 C
[2]
  purified protein yield per well: 91 µg
[3]; [13]
  PET hydrolysis: < 3
[3]; [14]
  PET hydrolysis: 3
[3]; [15]
  PET hydrolysis: 9
[3]; [20]
  PET hydrolysis: 11
[3]; [17]
  PET hydrolysis: < 3
[3]; [18]
  PET hydrolysis: < 3
[3]; [19]
  PET hydrolysis: < 3
[3]; substrate: cryPow, 60 °C, pH 8.5
  PET hydrolysis: < 3
